The numbers were not newly measured in paper PMC5689459, which cites them from elsewhere.

The target in the data set is delta-opioid receptor (Homo sapiens) (UniProt P41143). In words: radioligand.

Sequence of Morphiceptin (P02666 whole entry, looked up): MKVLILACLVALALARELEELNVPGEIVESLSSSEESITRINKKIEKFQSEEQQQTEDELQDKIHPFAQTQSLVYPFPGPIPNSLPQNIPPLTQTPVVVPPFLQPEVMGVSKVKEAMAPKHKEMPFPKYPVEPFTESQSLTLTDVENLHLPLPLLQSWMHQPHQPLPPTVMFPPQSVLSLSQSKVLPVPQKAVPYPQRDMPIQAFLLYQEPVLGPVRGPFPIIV

What is called Ki is the equilibrium dissociation constant of an inhibitor or competing ligand from its target. In the case of Morphiceptin (from UniProt P02666), the Ki is more than 10 µM.
